According to patent US12540197B2, “Anti-tissue factor antibodies and antibody conjugates, compositions comprising anti-tissue factor antibodies or antibody conjugates, and methods of making and using anti-tissue factor antibodies and antibody conjugates” (SUTRO BIOPHARMA, INC., priority 2023, dated 2026):
Residue numbers refer to the chain shown, from its start. One block for each molecule: values may come before it.

Tests used:
[1] = tested on: HEK293T; test: FACS cell-binding assay on parental HEK293T cells; conditions: Table 16, parental cells
Text: HEK293T, BxPC3 cells (TF positive) and NCI-H1703 (TF negative) cells were obtained from ATCC (American Type Culture Collection) and maintained in DMEM:F12 (1:1), high glucose (Corning) supplemented with 10% heat-inactivated fetal bovine serum (ThermoScientific), 1× Penicillin/Streptomycin (Corning) and 2 mmol glutamax (Thermo Fisher Scientific). To generate cells that stably expressing human tissue factor (HEK293T-humanTF) or cynomolgus tissue factor (HEK293T-cynoTF), HEK293T cells were transfected with plasmid vectors that contain the corresponding protein sequence and stable clones were selected with puromycin.
For a fluorescence-activated cell sorting (FACS) cell-binding assay, cells were collected by Accutase and counted by the Vi-CELL Cell Viability Analyzersharvested and, then re-suspended in FACS buffer (DPBS buffer supplemented with 1% bovine serum albumin). A total of 200,000 cells in 100 μL were incubated on ice with 100 μL of anti-TF antibodies in each well of a 96-well plate. Cells were washed twice with ice-cold FACS buffer and then incubated on ice for 60 mins with 5 μg/mL Alexa 647-labeled donkey anti-human Fc antibody (Jackson ImmunoResearch). Unstained cells and cells stained with secondary antibody alone were used as controls. Cells were washed twice with FACS buffer and analyzed using a BD FACS Canto system. Geometric mean fluorescence intensities (MFI) were fitted using non-linear regression analysis with one site specific binding equation on GraphPad Prism (GraphPad Software; La Jolla, CA).

[2] = target: T1, human TF (Homo sapiens, UniProt P13726); test: Biacore off-rate and kinetic binding, human TF; conditions: Table 12; 25° C., 1:1 Langmuir
T1 construct: purchased Lake Pharma
Protocol: (§1) Anti-Fc polyclonal antibodies were immobilized onto a CM4 chip (Cytiva #BR100534) using amine coupling chemistry (Human Antibody Capture Kit, Cytiva #BR100839). The immobilization steps were carried out at a flow rate of 25 μL/min in 1×HBS-EP+buffer (Cytiva #BR100669). The sensor surfaces were activated for 7 min with a mixture of N-hydroxysuccinimide (NHS, 0.05 M) and 1-ethyl-3-(3-dimethylaminopropyl)-carbodiimide (EDC, 0.2 M). The anti-Fc polyclonal antibodies were injected over all 4 flow cells at a concentration of 25 μg/mL in 10 mM sodium acetate, pH 4.5, for 7 min. Ethanolamine (1 M, pH 8.5) was injected for 7 min to block any remaining activated groups. Approximately 6,000 response units (RU) of capture antibody was immobilized on each flow cell.
(§2) Off-rate and kinetic binding experiments were performed at 25° C. using 1×HBS-EP+buffer. Antibodies were injected over the anti-Fc surface at a concentration of 3 μg/mL for 12 seconds at a flow rate of 10 μL/min on flow cells 2, 3 and 4, followed by a buffer wash for 30 seconds at the same flow rate. Single point off-rate analysis was carried out using an antigen concentration of 100 nM. […] After capturing ligand (antibody) on the anti-Fc surface, the analyte (human TF, Lake Pharma; cynomolgus TF, Sino Bio #90885-C08H; mouse TF, R&D Systems #3178-PA) was bound for 180 seconds, followed by a 420 second dissociation phase at a flow rate of 50 μL/min. Between each ligand capture and analyte binding cycle, regeneration was carried out using 2 injections of 10 mM glycine pH 2.0 for 30 seconds at 30 μL/min, followed by a 30 second buffer wash step.
(§3) The data were fit with the Biacore T200 Evaluation software, using a 1:1 Langmuir binding model. KD (affinity, nM) was determined as a ratio of the kinetic rate constants calculated from the fits of the association and dissociation phases.
(§4) Anti-Fc polyclonal antibodies were immobilized onto a CM4 chip (Cytiva #BR100534) using amine coupling chemistry (Human Antibody Capture Kit, Cytiva #BR100839). The immobilization steps were carried out at a flow rate of 25 μL/min in 1×HBS-EP+buffer (Cytiva #BR100669). The sensor surfaces were activated for 7 min with a mixture of NHS (0.05 M) and EDC (0.2 M). The Anti-Fc antibodies were injected over all 4 flow cells at a concentration of 25 ug/ml in 10 mM sodium acetate, pH 4.5, for 7 min. Ethanolamine (1 M, pH 8.5) was injected for 7 min to block any remaining activated groups. Approximately 6,000 response units (RU) of capture antibody was immobilized on each flow cell. Off-rate and kinetic binding experiments were performed at 25° C. using 1×HBS-EP+buffer. Antibodies or ADCs were injected over the anti-Fc surface at a concentration of 3 μg/mL for 12 seconds at a flow rate of 10 μL/min on flow cells 2, 3 and 4, followed by a buffer wash for 30 seconds at the same flow rate. […] After capturing ligand (antibody) on the anti-Fc surface, the analyte (human TF, Lake Pharma; cynomolgus TF, Sino Bio #90885-C08H; mouse TF, R&D Systems #3178-PA) was bound for 180 seconds, followed by a 420 second dissociation phase at a flow rate of 50 μL/min. Between each ligand capture and analyte binding cycle, regeneration was carried out using 2 injections of 10 mM Glycine pH 2.0 for 30 seconds at 30 μL/min, followed by a 30 second buffer wash step. The data was fit with the Biacore T200 Evaluation software, using a 1-1 Langmuir binding model. KD (affinity, nM) was determined as a ratio of the kinetic rate constants calculated from the fits of the association and dissociation phases.

[3] = tested on: cynomolgus TF; test: Biacore off-rate and kinetic binding, cynomolgus TF; conditions: Table 12; 25° C., 1:1 Langmuir
Protocol: as §1, §2, §3, §4

[4] = tested on: primary human keratinocytes; test: Cell binding on primary adult human keratinocytes (flow cytometry); conditions: Table 29, primary human keratinocytes
Protocol: Since TF is expressed in human skin, anti-TF antibody 2900-A02 and 2842-B01-Hc3/Lc2 were tested in cell binding assay on primary adult human keratinocyte cells purchased from Thermo Fisher Scientific. Keratinocytes were cultured in defined keratinocyte culture medium (EpiLife Medium, Thermo Fisher Scientific) supplemented with growth supplement S7 (S0175 from Thermo Fisher Scientific) and Penicillin/Streptomycin on plates coated with keratinocyte coating matrix (Thermo Fisher Scientific).
To evaluate antibody binding activity of the anti-TF antibodies on the adult primary keratinocytes, a total of 100,000 keratinocytes per well were incubated on ice with serial dilutions of anti-TF antibodies in FACS buffer (PBS buffer supplemented with 1% bovine serum albumin, 0.05% sodium azide) for 60 minutes. Cells were washed twice with ice-cold FACS buffer and then incubated with 5 microgram/mL Alexa 647 labeled donkey anti-human Fc antibody (Jackson ImmunoResearch, West Grove, PA) on ice for another 60 minutes. Unstained cells and cells stained with secondary antibodies alone were used as controls. Samples were then washed twice using FACS buffer and analyzed using an Attune flow cytometer (Thermo Fisher). Geometric mean fluorescence intensities were fitted using non-linear regression analysis with one site specific binding equation on GraphPad Prism.

[5] = tested on: primary human keratinocytes; test: ADC cell killing on primary adult human keratinocytes (WST-8); assay type: cell-based; conditions: Table 30, 120 hours, read-out: Keratinocyte Killing EC50
Protocol: To evaluate the cytotoxicity effects of the ADC on the adult primary keratinocytes, a total of 2000 keratinocytes in a volume of 50 microliters were seeded in a 96-well flat bottom cell culture plate coated with keratinocyte coating matrix (Thermo Fisher Scientific) the day before the actual assay starts. ADCs were formulated at 2× starting concentration in cell culture medium and filtered through SpinX 0.22 micron cellulose acetate filtered 2 mL centrifuge tubes (Corning Costar). Filter sterilized samples were serial diluted (1:3) under sterile conditions and added onto cells in triplicates. Plates were cultured at 37° C. in a CO2 incubator for 120 hours. For cell viability measurement, 10 microliters of WST-8 reagent (VWR) were added into each well and plates were incubated at 37° C. in a CO2 incubator for 4 hours. […] Data was fitted with non-linear regression analysis, using log (inhibitor) vs. response, variable slope, 4-parameter fit equation using GraphPad Prism. Data was expressed as % relative cell viability vs. dose of free linker-warhead or ADC in nanomolar with error bars indicating the Standard Deviation (SD) of the triplicates.

T1 sequence (P13726 33-295): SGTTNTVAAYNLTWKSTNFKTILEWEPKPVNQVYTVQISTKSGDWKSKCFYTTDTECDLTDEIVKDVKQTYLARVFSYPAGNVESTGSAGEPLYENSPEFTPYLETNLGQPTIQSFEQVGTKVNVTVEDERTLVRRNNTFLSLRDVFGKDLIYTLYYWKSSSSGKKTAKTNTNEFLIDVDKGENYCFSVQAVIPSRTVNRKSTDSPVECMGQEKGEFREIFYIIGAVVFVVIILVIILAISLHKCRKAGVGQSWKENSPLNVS
Sequence of cynomolgus TF (as listed by the source): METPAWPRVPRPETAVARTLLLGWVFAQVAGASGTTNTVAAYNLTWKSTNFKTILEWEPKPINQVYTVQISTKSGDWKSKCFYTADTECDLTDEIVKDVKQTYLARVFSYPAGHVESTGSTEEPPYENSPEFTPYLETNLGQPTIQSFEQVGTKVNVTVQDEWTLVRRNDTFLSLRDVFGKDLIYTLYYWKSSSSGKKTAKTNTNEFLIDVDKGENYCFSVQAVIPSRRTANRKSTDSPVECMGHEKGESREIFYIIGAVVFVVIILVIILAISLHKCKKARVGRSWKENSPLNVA

Biacore human TF kinetics ka [2]: 62500 M⁻¹ s⁻¹
Biacore human TF kinetics kd [2]: 0.000865 s⁻¹
Biacore cynomolgus TF kinetics ka [3]: 80800 M⁻¹ s⁻¹
Biacore cynomolgus TF kinetics kd [3]: 0.00241 s⁻¹
B1: 49 (antibody)
heavy: MQVQVQESGPGLVKPPGTLSLTCAVSGFSLSYYGVSWVRQPPGKGLEWIGTIDSSGRTYYNPSLKSRVTISNDNAPNTVSLKLSSVTAADTAVYYCARDFYGWNSGALDIWGQGTLVTVSSASTKGPSVFPLAPSSKSTSGGTAALGCLVKDYFPEPVTVSWNSGALTSGVHTFPAVLQSSGLSLSSVVTVPSSSLGTQTYICNVNHKPSNTKVDKKVEPKSCDKTHTCPPCPAPELLGGPSVFLFPPKPKDTLMISRTPEVTCVVVDVSHEDPEVKFNWYVDGVEVHNAKTKPREEQYNSTYRVVSVLTVLHQDWLNGKEYKCKVSNKALPAPIEKTISKAKGQPREPQVYTLPPSREEMTKNQVSLTCLVKGFYPSDIAVEWESNGQPENNYKTTPPVLDSDGSFLYSKLTVDKSRWQQGNVFSCSVMHEALHNHYTQKSLSLSPGK
light: MDLQLTQSPSTLSASVGDRVTITCRASQSVYSNKYLSWYQQKPGKAPKLLIYKASTLASGVPSRFSGSGSGTEFTLTISSLQPDDFATYYCAAAYSDDSDTAFGQGTKVEIKRTVAAPSVFIFPPSDEQLKSGTASVVCLLNNFYPREAKVQWKVDNALQSGNSQESVTEQDSKDSTYSLSSTLTLSKADYEKHKVYACEVTHQGLSSPVTKSFNRGEC
modifications: pAzMeF at Y180/F404; conjugate
HEK293T Bmax (MFI) [1]: 1366 MFI

Biacore human TF kinetics ka [2]: 57200 M⁻¹ s⁻¹
Biacore human TF kinetics kd [2]: 0.000418 s⁻¹
Biacore cynomolgus TF kinetics ka [3]: 72400 M⁻¹ s⁻¹
Biacore cynomolgus TF kinetics kd [3]: 0.00113 s⁻¹
B2: 37 (antibody)
heavy: MEVQLVESGGGLVQPGGSLRLSCAASGFSISSYDMSWVRQAPGKGLEWIGIIGSNGRTYYPDSVKGRFTISRDNSKNTVTLQMNSLRAEDTAVYYCARGLYDGTGNIWGQGTLVTVSSASTKGPSVFPLAPSSKSTSGGTAALGCLVKDYFPEPVTVSWNSGALTSGVHTFPAVLQSSGLSLSSVVTVPSSSLGTQTYICNVNHKPSNTKVDKKVEPKSCDKTHTCPPCPAPELLGGPSVFLFPPKPKDTLMISRTPEVTCVVVDVSHEDPEVKFNWYVDGVEVHNAKTKPREEQYNSTYRVVSVLTVLHQDWLNGKEYKCKVSNKALPAPIEKTISKAKGQPREPQVYTLPPSREEMTKNQVSLTCLVKGFYPSDIAVEWESNGQPENNYKTTPPVLDSDGSFLYSKLTVDKSRWQQGNVFSCSVMHEALHNHYTQKSLSLSPGK
light: MELVMTQSPPTLSLSPGERVTLSCRASQSVYGNNWLSWYQQKPGQAPRLLIYGASKLATSIPARFSGSGSGTQFTLTISSLQPEDFAVYYCQGTYYSGDWYFAFGQGTKVEIKRTVAAPSVFIFPPSDEQLKSGTASVVCLLNNFYPREAKVQWKVDNALQSGNSQESVTEQDSKDSTYSLSSTLTLSKADYEKHKVYACEVTHQGLSSPVTKSFNRGEC
modifications: pAzMeF at Y180/F404; drug conjugate
Keratinocyte Binding Bmax [4]: 151831
HEK293T Bmax (MFI) [1]: 1062 MFI
EC50 [5]: > 100 nM

Biacore human TF kinetics ka [2]: 71200 M⁻¹ s⁻¹
Biacore human TF kinetics kd [2]: 0.00124 s⁻¹
Biacore cynomolgus TF kinetics ka [3]: 121000 M⁻¹ s⁻¹
Biacore cynomolgus TF kinetics kd [3]: 0.00735 s⁻¹
B3: 48 (antibody)
heavy: B2 heavy with E2Q, L5V, Q14K, V38I, P61A, D73N, N74T, S75N, K76E, T80Y
light: MDIQMTQSPSSLSASVGDRVTITCQASQSVYGNNWLSWYQQKPGKAPKLLIYGASKLASGVPSRFSGSGSGTDFTLTISSLQPEDFATYYCQGTYYSGDWYFAFGGGTKVEIKRTVAAPSVFIFPPSDEQLKSGTASVVCLLNNFYPREAKVQWKVDNALQSGNSQESVTEQDSKDSTYSLSSTLTLSKADYEKHKVYACEVTHQGLSSPVTKSFNRGEC
modifications: pAzMeF at Y180/F404; conjugate
HEK293T Bmax (MFI) [1]: 1232 MFI
